Measurements as given in PMC10397247.
Where two headings read alike, the source gives them in different places.

Assays:
[1] = target: T1, O2-AA; experiment: two-hybrid library CCmax; details: mean of both orientations;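 further: natural log of median RNA to DNA barcode read ratio; higher means stronger binding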
T1 chain: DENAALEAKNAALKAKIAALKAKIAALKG

[2] = target: T2, O13-AA; experiment: two-hybrid library CCmax;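 further: natural log of median RNA to DNA barcode read ratio; higher means stronger binding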
T2 chain: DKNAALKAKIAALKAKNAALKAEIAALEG

[3] = target: T3, O4-AA; experiment: two-hybrid library CCmax; details: mean of both orientations;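 further: natural log of median RNA to DNA barcode read ratio; higher means stronger binding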
T3 chain: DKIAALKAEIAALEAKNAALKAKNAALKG

[4] = target: T4, P9-AA; experiment: two-hybrid library CCmax; details: mean of both orientations;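 further: natural log of median RNA to DNA barcode read ratio; higher means stronger binding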
T4 chain: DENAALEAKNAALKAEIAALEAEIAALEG

[5] = target: T5, O14-AA; experiment: two-hybrid library CCmax; details: mean of both orientations
T5 chain: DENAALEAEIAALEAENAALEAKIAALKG

[6] = target: T6, O5-AA; experiment: two-hybrid library CCmax; details: mean of both orientations
T6 chain: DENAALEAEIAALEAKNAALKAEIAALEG

[7] = target: T7, O6-AA; experiment: two-hybrid library CCmax; details: mean of both orientations
T7 chain: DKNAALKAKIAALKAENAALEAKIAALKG

[8] = target: T8, O7-AA; experiment: two-hybrid library CCmax; details: mean of both orientations
T8 chain: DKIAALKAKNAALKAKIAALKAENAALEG

[9] = target: T9, O8-AA; experiment: two-hybrid library CCmax; details: mean of both orientations
T9 chain: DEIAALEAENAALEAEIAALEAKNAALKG

[10] = target: T10, P10-AA; experiment: two-hybrid library CCmax; details: mean of both orientations
T10 chain: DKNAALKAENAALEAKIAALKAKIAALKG

[11] = target: T11, O3-AA; experiment: two-hybrid library CCmax; details: mean of both orientations
T11 chain: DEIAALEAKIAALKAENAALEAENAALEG

[12] = target: T12, O11-AA; experiment: two-hybrid library CCmax
T12 chain: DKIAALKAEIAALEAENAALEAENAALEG

[13] = target: T13, P6A-bS; experiment: two-hybrid library CCNG1
T13 chain: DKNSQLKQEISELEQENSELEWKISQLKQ

[14] = target: T14, P7A-bS; experiment: two-hybrid library CCNG1
T14 chain: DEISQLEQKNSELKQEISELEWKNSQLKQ

[15] = target: T15, P9A-bS; experiment: two-hybrid library CCNG1
T15 chain: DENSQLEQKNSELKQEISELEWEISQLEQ

[16] = target: T16, P8A-bS; experiment: two-hybrid library CCNG1
T16 chain: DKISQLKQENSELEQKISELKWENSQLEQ

[17] = target: T17, P5A-bS; experiment: two-hybrid library CCNG1
T17 chain: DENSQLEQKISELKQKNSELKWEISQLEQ

[18] = target: T18, P6bHq; experiment: two-hybrid library CCNG1
T18 chain: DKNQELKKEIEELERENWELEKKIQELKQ

[19] = target: T19, 4H780-bA; experiment: two-hybrid library CCNG1
T19 chain: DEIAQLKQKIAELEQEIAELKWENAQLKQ

[20] = target: T20, 4H968-bA; experiment: two-hybrid library CCNG1
T20 chain: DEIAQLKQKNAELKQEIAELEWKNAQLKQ

[21] = target: T21, 4H457-bA; experiment: two-hybrid library CCNG1
T21 chain: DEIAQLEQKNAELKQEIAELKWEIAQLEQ

[22] = target: T22, 4H918-bA; experiment: two-hybrid library CCNG1
T22 chain: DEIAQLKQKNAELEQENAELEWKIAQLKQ

[23] = target: T23, 4H797-bA; experiment: two-hybrid library CCNG1
T23 chain: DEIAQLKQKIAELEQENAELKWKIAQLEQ

[24] = target: T24, 4H953-bA; experiment: two-hybrid library CCNG1
T24 chain: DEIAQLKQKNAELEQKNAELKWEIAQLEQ

[25] = target: T25, 4H754-bA; experiment: two-hybrid library CCNG1
T25 chain: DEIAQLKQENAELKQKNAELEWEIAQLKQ

[26] = target: T26, O14-bA; experiment: two-hybrid library CCNG1
T26 chain: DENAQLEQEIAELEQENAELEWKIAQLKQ

[27] = target: T27, 4H855-bA; experiment: two-hybrid library CCNG1
T27 chain: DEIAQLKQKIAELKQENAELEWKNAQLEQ

[28] = target: T28, 4H575-bA; experiment: two-hybrid library CCNG1
T28 chain: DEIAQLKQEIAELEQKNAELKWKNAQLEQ

[29] = target: T29, 4H683-bA; experiment: two-hybrid library CCNG1
T29 chain: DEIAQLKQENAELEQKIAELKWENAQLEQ

[30] = target: T30, 4H968-bN; experiment: two-hybrid library CCNG1
T30 chain: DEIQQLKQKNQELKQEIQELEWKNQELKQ

[31] = target: T31, 4H918-bN; experiment: two-hybrid library CCNG1
T31 chain: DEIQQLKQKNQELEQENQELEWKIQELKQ

[32] = target: T32, 4H967-bN; experiment: two-hybrid library CCNG1
T32 chain: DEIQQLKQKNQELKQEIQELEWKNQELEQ

[33] = target: T33, 4H953-bN; experiment: two-hybrid library CCNG1
T33 chain: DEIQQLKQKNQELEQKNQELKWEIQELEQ

B1: O13-AA (peptide)
chain: DKNAALKAKIAALKAKNAALKAEIAALEG
interaction score [1]: -1.56 | interaction score [2]: -1.69 | interaction score [3]: -1.61 | interaction score [4]: -1.16 | interaction score [5]: 2.19 | interaction score [6]: -0.257 | interaction score [7]: 1.5 | interaction score [8]: -1.54 | interaction score [9]: 1.18 | interaction score [10]: -1.54 | interaction score [11]: -1.86

B2: O11-AA (peptide)
chain: DKIAALKAEIAALEAENAALEAENAALEG
interaction score [1]: -0.959 | interaction score ([2]; mean of both orientations): -1.08 | interaction score [3]: 1.9 | interaction score [4]: -1.22 | interaction score [5]: -1.2 | interaction score [6]: -1.47 | interaction score [7]: -0.7 | interaction score [8]: -0.673 | interaction score [9]: -1.67 | interaction score [10]: -0.539 | interaction score [12]: -0.752 | interaction score [11]: -0.899

B3: P5A-bS (peptide)
chain: DENSQLEQKISELKQKNSELKWEISQLEQ
interaction score [13]: 0.815 | interaction score [14]: -1.3 | interaction score [15]: -0.973 | interaction score [16]: -1.1 | interaction score [17]: -0.799 | interaction score [18]: 1.33

B4: 4H457-bA (peptide)
chain: DEIAQLEQKNAELKQEIAELKWEIAQLEQ
interaction score [19]: -1.18 | interaction score [20]: 0.0968 | interaction score [21]: -0.968 | interaction score [22]: -0.845 | interaction score [23]: -1.25 | interaction score [24]: -0.948 | interaction score [25]: -1.54 | interaction score [26]: -0.0398 | interaction score [27]: -1.04 | interaction score [28]: -1.69 | interaction score [29]: 0.308

B5: 4H918-bN (peptide)
chain: DEIQQLKQKNQELEQENQELEWKIQELKQ
interaction score [30]: -0.218 | interaction score [31]: -0.715 | interaction score [32]: -0.522 | interaction score [26]: -0.665 | interaction score [33]: 0.301
